The record followed here is the supplement of paper PMC10567573.

This series in a line: protein stability index of a GFP-peptide fusion (GPS, HEK-293T) (PSI 1-6); higher = more stable.
Where [1] appears, read: treatment: DMSO, c terminus: a fixed tail appended.
Where [2] appears, read: treatment: MLN4924 1 uM, 8 h, c terminus: a fixed tail appended.
Setting [3] is: treatment: DMSO, c terminus: native.
The mark [4] stands for this setting: treatment: MLN4924 1 uM, 8 h, c terminus: native.

± gives the standard deviation.
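Note: 24-mer peptide tiles fused after GFP, lentivirally expressed, FACS-sorted into six equal bins by GFP/DsRed ratio, decoded by Illumina sequencing, PSI is the read-weighted mean bin number.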

Regarding AAHLKLTSIEEGYERSFIHKIKHK [IQUB], the protein stability index under setting [1] is 3.18 ± 0.24 and the protein stability index under setting [2] worked out at 3.2 ± 0.2.

As to AALTRMRAESTANAGQSDNRSLAE [ANKRD17], the protein stability index stood at 4.79 ± 0.14 under setting [1] and 4.81 ± 0.15 under setting [2].

As for AAPAGSLSRKKRLELDDNLDTERP [TRIB3], the protein stability index by setting is: under setting [1], 5.25 ± 0.33; under setting [2], 5.27 ± 0.14. AATRGGSHLQAAAQTPPRPGPPSA [SCNN1D] had a protein stability index under setting [1] of 4.93 ± 0.21 and a protein stability index under setting [2] of 4.84 ± 0.1.

For the sequence AAWKGRVLLPETQKRQQLSEDTLT [C22orf31], the protein stability index is, setting by setting: under setting [1], 3.83 ± 0.31; under setting [2], 3.84 ± 0.38.

ACGIEHCSVHYVSDSGDGVYAGRP [FBXO34]: the protein stability index is, setting by setting: under setting [1], 2.25 ± 0.29; under setting [2], 2.84 ± 1.1.

ADACDIDEIEEVPTTSHRLSRHDK [NETO1] registered a protein stability index under setting [1] of 5.59 ± 0.17 and a protein stability index under setting [2] of 5.45 ± 0.17. On the same counts, the results for ADDFRTKYEHELALRQTVEADVNG [KRT16] are 5.17 ± 0.38 and 5.09 ± 0.034. In the same order, the values of ADLLLLTDLKTLCCEFLEGCIAAE [GAN] are 2.15 ± 0.42 and 2.16 ± 0.58.

Take ADLRTNHTLNNLVEKLLREEAEGA [TRIM35]: the protein stability index under setting [1] came out at 4.32 ± 0.17 and the protein stability index under setting [2] stood at 4.43 ± 0.2. On the same counts, the results for AEDKAAVERSKMIDRNLREDGEKA [GNAI1] are 5.691 ± 0.042 and 5.34 ± 0.13.

As for AEEEEEEEEEVDLACTPTDVRDVD [CCND1], the protein stability index was determined as 5.53 ± 0.31 under setting [1] and 5.41 ± 0.34 under setting [2]. Consider AEEGWSPTPKCLRLCFFPFVENGH [CFHR2], for which the protein stability index by setting is: under setting [1], 1.96 ± 0.28; under setting [2], 2.12 ± 0.32.

As to AEISQPPALSQLVNLYLGRSHFLW [TCF25], the protein stability index by setting is: under setting [1], 2.67 ± 0.23; under setting [2], 2.73 ± 0.44. In the same order, the values of AEKNCMTFFEVSPLCNFNVIESFT [RAB40C] are 2.3 ± 0.64 and 2.02 ± 0.24. On the same counts, the results for AELEQHLEQEQEFQVNKLMKKIKK [CCDC6] are 4.61 ± 0.26 and 5.13 ± 0.38.

With AESFPGSQVMGSGRGSLSSGGQTS [PLEKHN1], the protein stability index by setting is: under setting [1], 4.81 ± 0.2; under setting [2], 4.88 ± 0.25.

Regarding AFDKKVLKFDAYFQEDVPMSTEEQ [EFHC1], the protein stability index turned out to be 4.71 ± 0.17 under setting [1] and 4.73 ± 0.18 under setting [2]. Turning to AFPQTPFKTGNSTATCTTNNNPNS [KCNA3], the protein stability index is, setting by setting: under setting [1], 4.61 ± 0.4; under setting [2], 4.62 ± 0.17. AGLFSQEQYERNKSSSSSSSSSSS [TMEM40]: the protein stability index is, setting by setting: under setting [1], 5.16 ± 0.083; under setting [2], 5.32 ± 0.2.

For the sequence AGRIDREELCAQSARCVVSFNILV [PCDHGA10], the protein stability index reads like this: under setting [1], 2.45 ± 1.1; under setting [2], 2.37 ± 0.61. On to AIMCVSCICWSPFLVTMANIGING [PTGFR], for which the protein stability index reads like this: under setting [1], 3.42 ± 0.095; under setting [2], 3.71 ± 0.45. On to AIQGISEKEKAEIEAKEACDWLRA [DLC1], for which the protein stability index reads like this: under setting [1], 4.69 ± 0.42; under setting [2], 4.72 ± 0.39. For AISSVERYDPQTNEWRMVASMSKR [KLHL20], the protein stability index by setting is: under setting [1], 3.71 ± 0.22; under setting [2], 3.99 ± 0.21. For AIVDLISRQYDKFLTHFILMNDVI [FBXO33], the protein stability index reads like this: under setting [1], 3.1 ± 0.45; under setting [2], 3.36 ± 0.28. Consider AKEEGGEEVAKAVLEQEETAAASR [EPB41L3], for which the protein stability index under setting [1] was found to be 5.47 ± 0.37 and the protein stability index under setting [2] is 5.79 ± 0.095. ALATLRVLRGLARPEHPPPAPTGQ [TMEM175]: the protein stability index runs as follows: under setting [1], 3.09 ± 0.22; under setting [2], 3.09 ± 0.39. Take ALDNESWGFVHPRLLSVPELCHHV [RETREG3]: the protein stability index came out at 2.65 ± 0.42 under setting [1] and 2.46 ± 0.23 under setting [2]. In the case of ALEFQPQLVLVAAGFDALQGDPKG [HDAC6], the protein stability index by setting is: under setting [1], 2.86 ± 0.28; under setting [2], 3.11 ± 0.47.

As for ALELLGATFVDKKRDLLGALKYWK [FEM1C], the protein stability index is, setting by setting: under setting [1], 2.25 ± 0.37; under setting [2], 2.52 ± 0.86. In the same order, the values of ALGHLGNDDSADYQHFLQDCVDGL [DLC1] are 4.26 ± 0.17 and 4.28 ± 0.46. As to ALILHQRIHSGEKPYGCVECGKAF [ZNF24], the protein stability index was 2.17 ± 0.052 under setting [1] and 2.5 ± 0.4 under setting [2]. As to ALNQEFLATRSNEKQELQELNDRF [PRPH], the protein stability index reads like this: under setting [1], 4.24 ± 0.19; under setting [2], 4.38 ± 0.22.

Take AMEYAPGGTLAEFIQKRCNSLLEE [NEK8]: the protein stability index reads like this: under setting [1], 3.56 ± 0.36; under setting [2], 3.3 ± 0.29.

With AMVLELLGPSLEDLFDLCDRTFTL [CSNK1G1], the protein stability index by setting is: under setting [1], 2.52 ± 1.4; under setting [2], 1.53 ± 0.14. ANFHLNDLEAPHEDDAEGEGEWD [TCF25] displayed a protein stability index under setting [3] of 5.63 ± 0.14 and a protein stability index under setting [4] of 5.39 ± 0.22.

ANIEEVLQRGEALSALDSKANNLS [SEC22B]: the protein stability index was 4.94 ± 0.16 under setting [1] and 4.89 ± 0.18 under setting [2]. For the sequence ANLKQVKKEDTEKERDLRDVGDWR [TNNI2], the protein stability index is 5.33 ± 0.076 under setting [1] and 4.96 ± 0.24 under setting [2].

As to ANYVIVRAYQYTTLTSVQLLDCFG [SLC35F2], the protein stability index reads like this: under setting [1], 3.21 ± 0.26; under setting [2], 3.03 ± 0.49. Regarding APDPELAAEMYQRGRAVLREAGFH [RSAD1], the protein stability index amounted to 3.92 ± 0.32 under setting [1] and 4.07 ± 0.22 under setting [2].

For APEIDPSSDGSNFGWETKIKAWMD [KMT2E], the protein stability index is 4.21 ± 0.41 under setting [1] and 4.36 ± 0.25 under setting [2]. As to APKVNAVDTLNVKDIAPEKQLLNS [DLC1], the protein stability index by setting is: under setting [1], 4.88 ± 0.2; under setting [2], 4.82 ± 0.35.

For the sequence APPPLKDDPEGDRDGCVITKVLL [ZBED3], the protein stability index was found to be 5.4 ± 0.25 under setting [3] and 5.43 ± 0.4 under setting [4]. Consider APPTPPEEEDLRRRLKYFFMSPCD [MCOLN1], for which the protein stability index runs as follows: under setting [1], 4.27 ± 0.23; under setting [2], 4.15 ± 0.23. In the same order, the values of APQHPQPGSQALPAPALAPDQLPQ [FBXO28] are 5.13 ± 0.32 and 5.04 ± 0.29. In the same order, the values of APSLEAPKPSGLEPGPAAYGLKPL [KCTD13] are 4.45 ± 0.25 and 4.58 ± 0.1. In the same order, the values of APSPQEALVRLRETEEMLGKKQEY [CHMP4C] are 5.26 ± 0.25 and 5.12 ± 0.096. APTMLHNSSGDFSQAHSTLKLANH [TRAF3IP2]: the protein stability index is, setting by setting: under setting [1], 4.02 ± 0.19; under setting [2], 4.18 ± 0.34. Take APTPPSLSQRVMCNDLFKVNPFQL [TIAF1]: the protein stability index is, setting by setting: under setting [1], 2.11 ± 0.25; under setting [2], 2.25 ± 0.28.

In the case of AQLQDFVRAKGSQSGRHLQTHSNT [STX5], the protein stability index runs as follows: under setting [1], 4.13 ± 0.08; under setting [2], 4.24 ± 0.15. Regarding AQPNTMLGRMFGSGREHNFTRPNE [BTBD10], the protein stability index reads like this: under setting [1], 3.74 ± 0.53; under setting [2], 3.61 ± 0.39. AQRLRPQDEPRQGCQPEDRRRRII [KCNG1]: the protein stability index worked out at 4.92 ± 0.23 under setting [1] and 4.9 ± 0.1 under setting [2]. As for ARLQEPVTFRDVAVDFTQEEWGQL [ZNF8], the protein stability index under setting [1] was determined as 4.13 ± 0.2 and the protein stability index under setting [2] was 4.07 ± 0.22.

With ASGKLRKKKKKQKNKKSSTGEASE [TCF25], under setting [1], the protein stability index was determined as 4.9 ± 0.23. As for ASGVGFILGPVVGGYLTELEDGFY [MFSD9], the protein stability index came to 2.05 ± 0.62 under setting [1] and 2.17 ± 0.23 under setting [2]. With ASHLGNELEGTEELCCVAELDNPM [C2CD2L], the protein stability index reads like this: under setting [1], 5.2 ± 0.23; under setting [2], 5.25 ± 0.18. As to ASHTVGFTPPTSLTRAGMSYYNSP [CCDC6], the protein stability index worked out at 2.82 ± 0.44 under setting [1] and 3.18 ± 0.21 under setting [2]. In the same order, the values of ASKGCQLGKTEQGFENMDFFTLDL [TRIM63] are 3.22 ± 0.19 and 3.22 ± 0.31. On the same counts, the results for ASLGDVQSGATISMPCSTDKENGE [SASS6] are 5.69 ± 0.17 and 5.62 ± 0.23. As for ATRAMGLLNTLSLAFVGGLPLAYQ [TMEM175], the protein stability index was 3.11 ± 0.32 under setting [1] and 2.99 ± 0.56 under setting [2]. On to ATSRTDREIKVTLVFEHVDQDLRT [CDK4], for which the protein stability index is, setting by setting: under setting [1], 2.2 ± 0.3; under setting [2], 2.26 ± 0.41. On the same counts, the results for AVEAELKSSTVGLVTLNDMKAKQE [FAM50A] are 5.21 ± 0.2 and 5.25 ± 0.13. Take AVFRFWAGGEKGPQAFPMSRLWDS [DNAAF3]: the protein stability index runs as follows: under setting [1], 2.14 ± 0.26; under setting [2], 2.18 ± 0.22. AVQDHGQPPLSATVTLTVAVADSI [PCDHGA10]: the protein stability index is, setting by setting: under setting [1], 2.83 ± 0.22; under setting [2], 2.98 ± 0.34.

In turn, AVSVMKKCRKLEDPQSSSQVTTS [SLC19A2] registered a protein stability index under setting [3] of 4.36 ± 0.23 and a protein stability index under setting [4] of 4.37 ± 0.19. On to AVWGQCQVRIRYLGERRAEPHSLL [SPSB2], for which the protein stability index came out at 2.26 ± 0.23 under setting [1] and 2.19 ± 0.28 under setting [2]. On the same counts, the results for AVYFAEAEEAESHFSSIPDAFWWA [KCNA1] are 2.27 ± 0.4 and 2.53 ± 0.42. For the sequence AVYLMTFLIVTVAWAAHTRLFQVV [TMEM175], the protein stability index by setting is: under setting [1], 3.17 ± 0.097; under setting [2], 3.18 ± 0.2. Regarding CESDIWALGCVMYTMLLGRPPFET [PLK2], the protein stability index is, setting by setting: under setting [1], 3.72 ± 0.55; under setting [2], 3.59 ± 0.71. Consider CGQPCSQKSGLIRHQKIHSGEKPY [ZNF649], for which the protein stability index by setting is: under setting [1], 3.02 ± 0.5; under setting [2], 3.21 ± 0.28.

For CHLTPSIYTEFPDETLRSGELLNM [INTS3], the protein stability index reads like this: under setting [1], 3.04 ± 0.17; under setting [2], 2.99 ± 0.24. On the same counts, the results for CLAKGTFSDVTFILDDGTISAHKP [RHOBTB2] are 2.36 ± 0.27 and 2.46 ± 0.17.
